From patent US20090269346A1 (RAPTOR PHARMACEUTICAL, published 2009)

Key:
LRP2 CR89 V1047D = biological target: T1, LRP2 CR89 V1047D (human, UniProt P98164 1022-1105); experiment: solid-phase binding assay: CR protein coated on the plate, ligand titrated, anti-RAP polyclonal and HRP secondary, OD 450 nm
T1 construct: also called YDWR
T1 chain: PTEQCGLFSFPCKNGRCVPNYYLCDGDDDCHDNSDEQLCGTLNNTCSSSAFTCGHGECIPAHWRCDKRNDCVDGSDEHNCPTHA
Method: (§1) Solid phase binding assays-Purified, refolded CR protein (1 μg) was bound to Nunc Maxisorp™ 96-well plates in TBS pH 8 supplemented with 5 mM CaCl₂ (TBSC) overnight at 4° C. Wells were washed with TBSC and then blocked with TBSC containing 2% bovine serum albumin (BSA). RAP ligands were then incubated with the immobilized receptor at a range of concentrations for 2 hours in the above blocking buffer supplemented with 0.05% Tween-20 at room temperature. Control wells contained no added ligand. As an additional control, to determine whether the absence of calcium affected binding, 10 mM EGTA was included in the incubation medium for some samples. Wells were washed with TBSTC and bound ligands detected with polyclonal anti-RAP (BP41/42, 1:1,000, BioMarin). Excess primary antibody was removed and wells washed before incubation with the secondary antibody, HRP-conjugated goat anti rabbit IgG (Bio-Rad). After washing, TMB substrate solutions (Bio-Rad) were added to detect HRP. Color development was stopped with 1N HCl. Absorption at 450 nm was measured with a microplate spectrophotometer (Molecular Devices). Data were plotted and Kd values derived by non-linear regression with the assumption of single-site binding (GraphPad Prism).
(§2) One premise of this work was that amino acids at A, C, A′ and C′ within the calcium-binding loops of a CR pair were key determinants of binding affinity for RAP and would be similarly important for binding of RAP variants. To test this idea, we prepared mutants of LRP2 CR89 in which the native, non-canonical residues at these positions were sequentially substituted with the non-native, canonical residues. As defined above, the A, C, A′, C′ string for LRP2 CR89 is YVWR. Mutants included LRP2 CR89 Y1042W (WVWR), LRP2 CR89 V1047D (YDWR), LRP2 CR89 R1088D (YVWD), LRP2 CR89 V1047D R1088D (YDWD), LRP2 CR89 Y1042W V1047D R1088D (WDWD), LRP2 CR89 Y1042W V1047D (WDWR), LRP2 CR89 Y1042W R1088D (WVWD). Binding to both RAP d3 and RAPv2A d3 were measured for each LRP2 CR89 mutant by solid-phase assay. Samples were tested in triplicate. OD values from uncoated wells, receptor-coated wells incubated with buffer alone, and uncoated wells incubated with the highest ligand concentration all gave similar values for all conditions tested.

LRP2 CR89 Y1042W = biological target: T2, LRP2 CR89 Y1042W (human, UniProt P98164 1022-1105); experiment: as above
T2 construct: also called WVWR
T2 chain: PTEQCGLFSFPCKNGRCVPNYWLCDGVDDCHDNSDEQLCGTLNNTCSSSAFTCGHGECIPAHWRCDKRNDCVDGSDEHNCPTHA
Method: as §1, §2

LRP2 CR89 V1047D R1088D = biological target: T3, LRP2 CR89 V1047D R1088D (human, UniProt P98164 1022-1105); experiment: as above
T3 construct: also called YDWD
T3 chain: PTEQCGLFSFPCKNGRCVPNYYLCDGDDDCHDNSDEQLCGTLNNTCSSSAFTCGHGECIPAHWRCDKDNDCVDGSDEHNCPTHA
Method: as §1, §2

LRP2 CR89 R1088D = biological target: T4, LRP2 CR89 R1088D (human, UniProt P98164 1022-1105); experiment: as above
T4 construct: also called YVWD
Method: as §1, §2

LRP2 CR3031 = biological target: T5, LRP2 CR3031 (UniProt P98164 3677-3755); experiment: solid-phase binding assay, ligand at 80 nM on coated CR proteins, blank-corrected absorbance
T5 construct: domain: CR30 and CR31; its making is not described
Method: as §1
(§3) Binding experiments were also carried out comparing the binding of RAP d3 and RAPv2A d3 to an array of CR pairs (FIG. 9), similar to the experiment depicted in FIG. 5. For these experiments, RAP d3 and RAPv2A d3 (or RAPv2 d3) were each incubated at 80 nM concentrations with LRP1 CR3-5, LRP6 CR12, LRP6 CR23, LRP6 CR1-3, LRP2 CR89, LRP2 CR2728, LRP2 CR3031, LRP2 CR3435, LRP2 CR34-36, VLDLR CR78, VLDLR CR6-8, MAT CR12, MAT CR23 and MAT CR34. Samples were tested twice, in duplicate, and values combined. Means and standard deviations were then calculated. Blank values obtained from wells incubated in the absence of ligand were used to correct absorbance data.

LRP2 CR2728 = biological target: T6, LRP2 CR2728 (UniProt P98164 3552-3631); experiment: as above
T6 construct: domain: CR27 and CR28; its making is not described
T6 sequence (looked up): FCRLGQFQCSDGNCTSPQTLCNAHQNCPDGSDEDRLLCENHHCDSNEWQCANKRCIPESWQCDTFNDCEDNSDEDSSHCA
Method: as §1, §3

LRP2 CR89 = biological target: T7, LRP2 CR89 (human, UniProt P98164 1025-1102); experiment: solid-phase assay, coated CR protein, anti-RAP, OD450
T7 construct: domain: CR8 and CR9; also called YVWR; L2 CR89; not shown: N-terminal hexahistidine and S-peptide from pET30(+)a
Method: (§4) Percent of maximum binding is the ratio of the OD at the highest concentration tested for each ligand and the highest OD measured for all such ligands at that concentration.
as §1
(§5) Next, binding of RAP d3 and RAPv2A d3 proteins to LRP1 CR3-5 and LRP2 CR89 was assessed. In order to understand the relative contributions of each RAPv2A d3 mutation to differences in affinity, we also prepared a number of RAPv2A d3 revertants and RAP d3 forward mutants, all comprising sequence variants intermediate between RAPv2A d3 and wild-type RAP d3 (FIGS. 7A and B, Table 1). Samples were tested in triplicate and experiments were repeated at least once. Values from different experiments were combined and a single mean and standard deviation obtained for each concentration of ligand tested.

LRP1 CR3-5 = biological target: T8, LRP1 CR3-5 (human); experiment: as above
T8 construct: range 852-973; Amplified from human cDNA; also called L1 CR3-5
Method: as §4, §1, §5

T8 sequence (Q07954 852-973): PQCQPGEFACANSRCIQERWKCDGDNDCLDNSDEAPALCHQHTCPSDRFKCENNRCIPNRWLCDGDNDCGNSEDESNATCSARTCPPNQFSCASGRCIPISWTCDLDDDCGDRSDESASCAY
T7 sequence (P98164 1025-1102): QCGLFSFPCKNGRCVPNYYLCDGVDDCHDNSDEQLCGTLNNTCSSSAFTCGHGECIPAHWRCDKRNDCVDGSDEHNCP
T5 sequence (P98164 3677-3755): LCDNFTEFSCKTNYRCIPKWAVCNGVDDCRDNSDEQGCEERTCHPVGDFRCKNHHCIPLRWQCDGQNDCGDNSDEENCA

B1: wild-type RAP d3 (ligand)
chain: LDRLRRVSHQGYSTEAEFEEPRVIDLWDLEQSANLTDKELEAFREELKHFEAKIEKHNHYQKQLEIAHEKLRHAESVGDGERVSRSREKHALLEGRTKELGYTVKKHLQDLSGRISRAR
notes: expressed in E. coli from pET30(+)a; not shown: vector-encoded N-terminal tags of pET30(+)a (hexahistidine and S-peptide, as stated for the CR constructs)
- binding result (LRP2 CR89 V1047D): no binding (tested: 100 nM)
- binding result (LRP2 CR89 Y1042W): no binding (tested: 100 nM)
- binding result (LRP2 CR89 V1047D R1088D): no binding (tested: 100 nM)
- binding result (LRP2 CR89 R1088D): no binding (tested: 100 nM)
- binding result (LRP2 CR3031): no binding (tested: 80 nM)
- binding result (LRP2 CR2728): no binding (tested: 80 nM)
- % max (percent of maximum binding) (LRP2 CR89): 5%
- % max (percent of maximum binding) (LRP1 CR3-5): 76%
- Kd (LRP1 CR3-5): 16 nM
